Data as given in the DeepSol protein solubility set.

assay: soluble on expression in E. coli; label from the status in PepcDB or PDB records

Sequence	soluble on expression in E. coli
MGSDKIHHHHHHMQFLDDSLHPENQDKVVITVAPYGPEWMPQDFPEDIPVTMEEQVQKAVDCYNAGATVLHLHVRELDGKGSKRLSKFNELIAGVRAAVPDMIIQVGGSISFAPEDDGQAAKWLSDDTRHMLADLDPKPDQVTVAINTTQMNIMELLYPEYLEGTSLSHPAYVEAYREMTVPAGPGWVEEHLRRLSNAGIQPHFQLTGIHAMETLERMVRAGKYKGPLNLTWIGIGGGFDGPNPFNFVNFVHRAPDGCTLTAESLLKNVLPFNMMAMAMGLHPRCGIEDTIIDQHGNRMTSVQQIEQCVRVARELGREIASGKEAREIYRIGTWYDSAEETLEAHGMAPNRKAGQKNLPLRKAA	not soluble
MELEQREGTMAAVGFEEFSAPPGSELALPPLFGGHILESELETEVEFVSGGLGGSGLRERDEEEEAARGRRRRQRELNRRKYQALGRRCREIEQVNERVLNRLHQVQRITRRLQQERRFLMRVLDSYGDDYRASQFTIVLEDEGSQGTDAPTPGNAENEPPEKETLSPPRRTPAPPEPGSPAPGEGPSGRKRRRVPRDGRRAGNALTPELAPVQIKVEEDFGFEADEALDSSWVSRGPDKLLPYPTLASPASD	soluble
MANFIDRRLNAKGKSTVNRQRFINRYKQQIKKAVSDAVTRRSVTDVDKGEKISIPTRDISEPMFHQGKGGVRDRVHPGNDQFTRGDKIDRPQGGSGGGAGKGDASDSGEGNDDFVFEISKDEYLELLFEDLELPNLQKNRLNKLVEYQIYRAGFTNDGVPANINIVRSLRSSLARRIAMSASKKKLLKESEQELAELENIPGTKAELILDLKAQIEELKRKIAKVPFIDTFDLRFNNFSRREVPSSQAVMFCLMDVSGSMDQATKDMAKRFYILLYLFLTRTYKNLEVVYIRHHTQAKEVDEHEFFYSQETGGTIVSSALKLMHEIQQARYPADEWNIYAAQASDGDNWADDSPTCKQLLEQKILPLVRYFSYIEITNRAHQTLWREYESLQQHYDNIAVQHIRQAEDIYPVFRELFKKQAVLEHHHHHH	not soluble
DVLESTIKAQKSRALNRKNLNYKQLLNTFGSLIGLVFLKSYEQGERTYLGMLSRGYSKDSNIKTLGQK	not soluble
MANIEIYTKATCPFCHRAKALLNSKGVSFQEIAIDGDAVKREEMIKRSGRTTVPQIFIDAQHIGGCDDLYALDARGGLDPLLR	not soluble
MPASSTSSPSSKEEDEKHTSADEDVTPTASPSLVKSEVVKEEENDDADRTLTMPSTSQDIQPESSPAHGRSAPSSQEITSPPTVRRVATPLEAAEQEYYYFTTDMINQAALDIEREKEKFDSLITWYKLQRDDVPALGTSSVGNSTAPSYVSEKGSTTPMSSQPSSHQSGTSSTNGAHGGLNGFSCSPFGLENNPRSNDPMQCMSSPVELDEICPTLEDFMSSAASSSTPSTSSAPQMNQNQNTHPNSINHHHQPDTSLLMLNNHHSSPLNQLSFNHQMPSTSNSNPPSNASLKRRATEEFGNDGPMKQAKIEGSENDNNPMRKLEMMANSSNFRGGNTINEVVEASKKDERTLKMEKLDVIGKSVGEEFAQQAREAQMRQMQQAAAAAGSMPPSYPSPGQYPGPMHYPGMPPMMPPGAPFSAGASYPPMGGPFPPNPYGMHPGMTPGGYPMSAPGKMPFGSPSFPQSAPSPAAMAAMQQGRMPGPPMPPHMMTPQQQQHFMQMQQAQMAHFNAQKAAAAAAAAGMSPAARASPMGASPSPHHPHPSQFPPNHPANPMYHHHIMMMRAMHAQGGQPGHPGMMPPGMMPPGMMPPGMMPPGMHPGMAGMPPMHPGMQGMPPMHPGMQGMPGMPHGPPQPPQNPALMVAGNRAGSAEAAAAQMGNPHHPMMGANMWQLTPHYPPPLPASSSSGAGTPVSR	not soluble
MGSDKIHHHHHHMPDTTHATIRSARLGDVEHILAEYRQAVAELPREESANLLWRPYDEFKAAVENGLFFVIENAVGSFMAGAGVFDLPGSVEKELGMCYVKKEWRGYGLQNLLLQIRICAATLGHVPDKSGEDAATKSFAALITGVKPANEHSAANTERLGFEPLPTPPSALFNACASCRTPPARDSGRKCCCDFFYLSDARRAEAIEKSLQMENWSRTRNGHGLIVALKIRHLLDIDFRNALHDIVQELRAQEPRVPTPGKQVK	not soluble
GPGSMVRSSSSSSAPLWKNQGGGSATAGAVASTTSPWLLRQLALAHFHNGDIQESADAFEQLLRTAPWELTNPALIFYSTALWHLKSESALGSLAQRLTDAEPLSATTLCVVANAYSLIKDPRDALVMLKRAVQVAPTLAYAHALHGYELLGQDSKAEAEAEFKAALAVDASLYIAYAGLGERFMREEQIDKARGYYKEAVKLNPTPAIVNRFALTYHRQGKSLADLKTALRLYTESLERHPNNVTARRQRADVLLRLDQPMQALEELKALLVQCPGEAVVYVTLAECMVCLRRPHEALQHYQTAMHLDPRRESYVQGCIDQLVAANML	soluble
MGRVIFMGKTGCGKTTLCQALNNLEIKYKKTQAIELYDNAIDTPGEYMENRGYYTALIVTAADADIIALVYDCTSEENYIAPGFASMFCKEVIGIITKINLAKDKSEIEVAEERLNLAGVSKIFKVDTVDDVGIKELFNYLNKFLEHHHHHH	soluble
MMNASTKFSDNYDVKEELGKGAFSVVRRCVHKTTGLEFAAKIINTKKLSARDFQKLEREARICRKLQHPNIVRLHDSIQEESFHYLVFDLVTGGELFEDIVAREFYSEADASHCIQQILESIAYCHSNGIVHRDLKPENLLLASKAKGAAVKLADFGLAIEVNDSEAWHGFAGTPGYLSPEVLKKDPYSKPVDIWACGVILYILLVGYPPFWDEDQHRLYAQIKAGAYDYPSPEWDTVTPEAKSLIDSMLTVNPKKRITADQALKVPWICNRERVASAIHRQDTVDCLKKFNARRKLKAAISAVKMVTRMSGVLRTSDSTGSVASNGSTTHDASQVAGTSSQPTSPAAEVYPNVLLFNPQKFPRNCVHPFTTHPYYSPKESSKKKLFFTLLFEVCPHTSRSHILLRDNTKNIYHPYHCFTNKMSNYERAAPSSHGSSTTKKIANAIADLVIRRSSPSIRRKTEADVHNSNRNRKVSAPANLQHALVPVIDVVVATGALASSSVDNLSASTSSDLGRNLLNKKEQGPPSTIKESSESSQTIDDNDSEKGGGQLKHENTVVRADGATGIVSSSNSSTASKSSSTNLSAQKQDIVRVTQTLLDAISCKDFETYTRLCDTSMTCFEPEALGNLIEGIEFHRFYFDGNRKNQVHTTMLNPNVHIIGEDAACVAYVKLTQFLDRNGEAHTRQSQESRVWSKKQGRWVCVHVHRSTQPSTNTTVSEF	not soluble
MKPYERLLEHNIKPSMQRIAIMEYLMNHPIHPSADDIYTALSPSMPTLSKTTVYNTLRLFSEQGAALMLTIDEKNTNFDADTSVHSHFLCRYCGHIYDLKSPEAVKKVESLEMDGHQVTEVHYYYKGICKNCLRKDKETRID	not soluble
MGSDKIHHHHHHMKQTILDVDLLAFEQGTRFQQAAVVDGLMRSLGTGFVVTTSDLPSALLDEAYGMLNRFFALEATTKRQFNVPEAFGQTGYTDTLVETAAGEKLPDWKEMLNWAFPLPDNHPLRQRFPTLYPEQLLPEVAVPGITRVLQTFHQTIAELQCRVLRIIATGLGCHNDFFTDLVQDAPTLTRAIRYPPMSEAPAAGHMWAAAHGDINLITALPRATAPGLQVYIDGSWVDAIAPEGQVIVNSGLMLERISNGLIPTGWHRVLAPSQANLERLSVVQFCHPKPSTLLTPLSNCVNESHPQRFAGVMAADALEEVLYKIKLMA	not soluble
MSLQDESPLLIITDSALVRDALVTHISETRRLLIADSHDVGMELALSFRPALILLDASSTDGEALALLRAFRSEPHLDDTFILVLSDEAAVLERLEASRAGADDFLRLPVDQAELTARVAVALRQARLSRRLRAYTRRIEEEMRLVADLQMRLLPAYTPYLASLRIDSFYQPSTEASGDYFDHFLLPGEDRLRVVIADASGHGARSAVLMTMVRTLFHASHAANTPLTDMLLEINTNLLDVVGNEPDFVTLFAADLDLRGNTLRYVNAGHCPALLRHPDGTTMRLSGTTPRLGFFGVRETERLVPFTPGTRLLLYTDGFHDCATASGRRLGIDRFLSLAEATMRRGGDVLSSLREDISTTFGEPPTWPDDVTALYIERKEEGHHHHHH	soluble
MHHHHHHSSGVDLGTENLYFQSMGFETLVVTSEDGITKIMFNRPKKKNAINTEMYHEIMRALKAASKDDSIITVLTGNGDYYSSGNDLTNFTDIPPGGVEEKAKNNAVLLREFVGCFIDFPKPLIAVVNGPAVGISVTLLGLFDAVYASDRATFHTPFSHLGQSPEGCSSYTFPKIMSPAKATEMLIFGKKLTAGEACAQGLVTEVFPDSTFQKEVWTRLKAFAKLPPNALRISKEVIRKREREKLHAVNAEECNVLQGRWLSDECTNAVVNFLSRKSKL	soluble
MDKTTHDKGLEIRKAVLGEAYVENALKNADDFNQPFQELVTEYCWGAIWGRDGLPKKTRSMLNLAMIAILNRPHELRAHIKGALTNGVTKDEIREIFMQVACYAGIPAGVDSFRIAREVFAELDKA	not soluble
MKTTTQELKQYITRLFQLSNNETWECEALEEAAENILPERFINNSLLAHLTLNTYTYYNDELHELSIYPFLMYANDQLISIGYLDHFDMDFLYLTDTKNTLIDERHLLKQGGNHHELEHHHHHH	soluble
MAVGAPFLYRYSLYNCAYVILNGKVLGIVPKSYIPNYSEFYEKRWFTEGFNIKGLNVDLDFQKEVPFGTDLIFSFKNLKVGFEICEDLWVTIPPSSNLALMGANLICNLSASNELVSKSSYRKSLVQNQSARTMCSYIYSSAGVHESTTDLLFSGHMIIAENGTIIKENNRFKRENDLLTGIVDLFKLDAERIKNISFRNSTFNENNEPRFIPFNLENTEIKNFDREIDKHPFLPKSQYAMEARCEEILNIQAAALAKRLEHTNLKKAVIGISGGLDSTLALLVVVKTFDMLNIPRENIITITMPGFGTTDRTYNNAVTLCKELHCDFREINIVNAALQHFEDIGHDKDIHDVTYENVQARERTQILMDLANKEGGLLIGTGDLSELALGWCTYNGDHMSMYSVNCSIPKTLVRFLVNYFANHEISNDAKEALLDILDTPVSPELEHHHHHH	soluble
MDWRHKAVCRDEDPELFFPVGNSGPALAQIADAKLVCNRCPVTTECLSWALNTGQDSGVWGGMSEDERRALKRRNARTKARTGV	not soluble
MSTFKPLKILASRRQVLKAGLAAMTLSGVASQVSAKEQPLKTSNGHSKPAAKKAGGRRIVMLDPGHGGIDTGAIGHNGSKEKHVVLAIAKNVRSILRSNGIDARLTRTGDTFIPLYDRVEIAHQHGADLFMSIHADGFTNPSAAGASVFALSNRGASSAMAKYLSDRENRADEVAGKKATDKDHLLQQVLFDLVQTDTIKNSLTLGSHILKKIKPVHKLHSRNTEQAAFVVLKSPSIPSVLVETSFITNPNEEKLLGTTAFRQKIATAIANGIISYFHWFDNQKAHSKRR	not soluble
MEKVNPKIQRLMSTDKQHFLTKHEFHTKETAERKDLLKFFIETRLKTDGGFLTNYLPDAERKDVATGHELLSESSGLYLRNLAFDTQGRFDNFYKQTKDTFYDGVQFSYRIDEQGNKYNVNASIDDLRIIRSLIEAGGHFKTDQYDQEIKKLGKSFMKTSMKDNILIDFYDSKSKQQSSETSLFYIDLITLGYLYKEFGISADYLQYHYQLIDDGYISDDLPLYQTKFNHQTNKYENNGTLNIIESLLTIVHLSEVGMAKQTSIDFVRKQVQQGTLFNSYDLNGSPVDKNQSAASYAIAALIGVAENDKELYRAAITVLNNFQIMDSSSPIYGGFGDKVTKQVYSYNNLMALLAYDF	not soluble
